Source: patent US20130035289A1, “PHARMACEUTICAL COMPOSITION FOR TREATMENT OF THROMBOSIS-RELATED DISEASES COMPRISING A FRAGMENT OF PROLACTIN (PRL)-GROWTH HORMONE (GH)-PLACENTAL LACTOGEN (PL)-FAMILY PROTEIN” (UNIVERSITE DE LIEGE, priority 2010, published 2013)
Blank lines part the entries; values can stand above or below the molecule they belong to.

Columns and labels:
uPA = assay: Immunoprecipitation with uPA in presence or absence of PAI-1; type: binding
Experimental: Western blot analysis of 16K PRL and 14K GH after their immunoprecipitation with uPA in the presence or in the absence of PAI-1. r14K GH and r16K PRL: recombinant proteins controls loaded on gels, no IP performed. (b) HUVEC were incubated with 14K GH or 16K PRL for 2 hours and then subjected to immunofluorescence analysis for uPA and 14K GH or 16K PRL Labellings appears in white for uPA (left panels), 14K GH or 16K PRL (middle panels).

PAI-1 [1] = target: T1, PAI-1 (Homo sapiens, UniProt P05121); assay: Gal4 yeast two-hybrid system; type: binding
T1 construct: gift of Pr; P. Declerck

PAI-1 [2] = target: T1, PAI-1; assay: In vitro clot lysis assay in pooled normal human plasma with added PAI-1 and tPA; type: biochemical; conditions: 3 μM protein, recombinant PAI-1, tPA
Experimental: Clot lysis was performed as follows: pooled normal plasma were used in citrated tube. Recombinant wild type PAI-1 was incubated in the presence or in the absence of 16K hPRL (3 μM), 14K hGH (3 μM) or different peptides (25 μM) for 10 min at 37° C., before to be added to diluted plasma in tris tween buffer (75 μl of plasma in 200 μl of 10 mM TRIS pH 7.5, 0.01% tween 20), followed by a second incubation for 10 min at 37° C. tPA was added to each tube at the end to reach a final volume of […]. Aliquots from each tube (80 μl) were added in duplicate to 96 wells, each containing 20 μl CaCl2 to give the following final concentration per well of 10 mM. Clot formation and dissolution were monitored at RT measuring turbidity at 405 nm in 5 min intervals.

PAI-1 [3] = target: T1, PAI-1; assay: Co-immunoprecipitation with anti-PAI-1 antibody and Western blot, human PAI-1; type: binding; conditions: for complex with recombinant wild type PAI-1 (co-immunoprecipitation): 10 min at 37° C.; for complex with endogenous PAI-1 from HUVEC culture medium: conditioned medium of HUVEC; for interaction with PAI-1 in plasma samples: human plasma
Experimental: The interaction was further confirmed by pull-down affinity assays. For the immunoprecipitation 4 μg of recombinant 16K hPRL or 14 hGH were mixed with 3 μg of recombinant wt PAI-1, 500 μl of conditioned media from HUVEC cells, 300 μl of human plasma or 100 μl of mouse plasma. The mixtures were incubated for 10 min at 37° C. 6 μg of mouse monoclonal antibody against PAI-1 (clone 33H1F7, recognize human and mouse PAI-1) was added to each tube and incubated overnight at 4° C. under rotation. For the experiments with mice expressing 16K hPRL, 300 μl of plasma from mice injected with Null-Ad or 16K-Ad adenovirus were collected 5 days after virus injection, and immunoprecipitation was performed as described above with same PAI-1 monoclonal antibody (33H1F7). Fifty microliters of protein A agarose was added to the mix and incubated overnight at 4° C. under rotation. After centrifugation for 1 min at 6000 rpm the supernatants were discarded and the pellets (containing the beads) were washed 5 times with PBS. After a new centrifugation, the beads were resuspended in 30 μl 1×β-mercaptoethanol loading buffer and boiled at 100° C. for 5 min, then left on ice for 5 min. The beads were centrifuged for 5 min at 4° C., then the supernatants were subjected to SDS-PAGE (12% acrylamide) for Western blot analysis.
For Western Blot Analysis cytoplasmic cell lysate, samples of different CoIP and mouse plasma were separated by SDS-PAGE (12% and 10%) and transferred to a polyvinylidene fluoride membrane (Milipore Corp., Bedford, Mass.). Blots were blocked overnight with 5% milk in Tris-buffered saline with 0.1% Tween 20 and probed for 1 h at RT with primary antibodies: rabbit polyclonal anti-hPRL (DAKO) or rabbit polyclonal anti hGH (home made). After three washes with Tris-buffered saline containing 0.1% Tween 20, antigen-antibody complexes were detected with peroxidase-conjugated goat anti-rabbit secondary antibody and an enhanced fluoro-chemiluminescent system (ECL-plus; Amersham Biosciences, Arlington Heights, Ill.).

endothelial cells [4] = assay: Endothelial cell proliferation (BrdU incorporation); type: cell-based, bovine; conditions: for anti-proliferative function: down-regulation of PAI-1 expression by si-RNA; for anti-proliferation effect: recombinant wild type PAI-1 added to culture medium
Experimental: The cells were plated in 96-well culture plates at a density of 2,500 cells per well in 10% FCS/DMEM and allowed to adhere for 24 h. Then complete medium was replaced with SFM for 24 h. […] Proliferation was analysed 24 h later by measuring BrdU incorporation by means of the Cell Proliferation ELISA, BrdU (Colorimetric) (Roche, Clinical Laboratories, Indianapolis, Ind.). […] ID NO: 35); PAI-1 […] ID NO: 36).

endothelial cells [5] = assay: Endothelial cell adhesion assay on vitronectin; type: cell-based, bovine; conditions: for increase of cell adhesion: absence of PAI-1 (si-RNA); for pro-adhesion effect: recombinant wild type PAI-1 added to culture medium
Text: ID NO: 35); PAI-1 […] ID NO: 36).

NF-κB = NF-κB activity in ABAE cells; type: cell-based, bovine; conditions: PAI-1 knockdown with si-RNA, 16K PRL 50 nM 1 h
[6] = absence of PAI-1, data not shown

T1 sequence (P05121 24-402): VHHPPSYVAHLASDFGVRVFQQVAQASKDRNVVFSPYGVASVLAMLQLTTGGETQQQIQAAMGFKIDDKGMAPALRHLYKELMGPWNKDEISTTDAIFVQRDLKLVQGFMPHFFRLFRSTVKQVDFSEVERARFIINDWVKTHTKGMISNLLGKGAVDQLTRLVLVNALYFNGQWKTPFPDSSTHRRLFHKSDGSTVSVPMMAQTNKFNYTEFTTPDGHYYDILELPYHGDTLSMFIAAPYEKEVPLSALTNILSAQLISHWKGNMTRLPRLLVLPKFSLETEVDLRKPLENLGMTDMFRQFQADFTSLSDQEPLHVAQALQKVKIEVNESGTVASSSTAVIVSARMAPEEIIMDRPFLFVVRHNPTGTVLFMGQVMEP

interaction with PAI-1 in yeast two-hybrid system (PAI-1 [1]): found to interact | clot lysis in human plasmas (PAI-1 [2]): increased significantly | complex with recombinant wild type PAI-1 (co-immunoprecipitation) (PAI-1 [3]): 14K GH/PAI-1 | complex with endogenous PAI-1 from HUVEC culture medium (PAI-1 [3]): able to form a complex | interaction with PAI-1 in plasma samples (PAI-1 [3]): interaction was also demonstrated
B1: 14K hGH: 14K N-terminal fragment of human growth hormone, recombinant, produced and purified from E. coli (protein)
chain: MFPTIPLSRLFDNAMLRAHRLHQLAFDTYQEFEEAYIPKEQKYSFLQNPQTSLSFSESIPTPSNREETQQKSNLELLRISLLLIQSWLEPVQFLRSVFANSLVYGASDSNVYDLLKDLEEGIQTLMGRLEDGSP
complex with uPA (immunoprecipitation) (uPA; [6]): does not form complex | complex with uPA (immunoprecipitation) (uPA; in the presence of PAI-1): uPA/PAI-1/14K GH complexes | anti-proliferative function (endothelial cells [4]): reduced significantly | anti-proliferation effect (endothelial cells [4]): reduced significantly | increase of cell adhesion (endothelial cells [5]): not seen | pro-adhesion effect (endothelial cells [5]): reduced significantly

B2: 16K hPRL: 16K N-terminal human prolactin fragment, recombinant, produced and purified from E. coli (protein)
chain: LPICPGGAARCQVTLRDLFDRAVVLSHYIHNLSSEMFSEFDKRYTHGRGFITKAINSCHTSSLATPEDKEQAQQMNQKDFLSLIVSILRSWNEPLYHLVTEVRGMQEAPEAILSKAVEIEEQTKRLLEGMELIVSQVHP
complex with uPA (immunoprecipitation) (uPA; [6]): does not form complex | complex with uPA (immunoprecipitation) (uPA; in the presence of PAI-1): formation of uPA/PAI-1/16K PRL | interaction with PAI-1 in yeast two-hybrid system (PAI-1 [1]): interacts | clot lysis in human plasmas (PAI-1 [2]): increased significantly | 16K PRL action on ECs (NF-κB activity) (NF-κB): reduced | complex with recombinant wild type PAI-1 (co-immunoprecipitation) (PAI-1 [3]): formation of 16K PRL/PAI-1 | complex with endogenous PAI-1 from HUVEC culture medium (PAI-1 [3]): able to form a complex | interaction with PAI-1 in plasma samples (PAI-1 [3]): interaction was also demonstrated | anti-proliferative function (endothelial cells [4]): reduced significantly | anti-proliferation effect (endothelial cells [4]): reduced significantly | increase of cell adhesion (endothelial cells [5]): not seen | pro-adhesion effect (endothelial cells [5]): reduced significantly
